Results published in publication PMC4066409.

Tests used:
[1] = tested on: NZF-1-F2F3 H515Q; test: fluorescence anisotropy; conditions: not given in the material (ESI)
[2] = tested on: NZF-1-F2F3 H559Q; test: fluorescence anisotropy; conditions: not given in the material (ESI)

For βRAR DNA, the Kd [1] was 3 µM and the Kd [2] was 3.7 µM.
